{"source": "paper PMC4293902", "about": "“Biochemical and structural characterization of the apicoplast dihydrolipoamide dehydrogenase of Plasmodium falciparum” (Bioscience Reports, 2015)", "key": {"[1]": {"target": "Plasmodium falciparum apicoplast dihydrolipoamide dehydrogenase (PfaE3), recombinant mature-length, N-terminal His-tag (Plasmodium falciparum 3D7)", "assay": "SAXS; EMBL beamline X33, DESY; 10°C; PfaE3 at 9, 8, 6, 5 and 4 μM; Guinier, p(r) and ab initio DAM with P2 symmetry"}, "[2]": {"target": "Plasmodium falciparum apicoplast dihydrolipoamide dehydrogenase (PfaE3), recombinant mature-length, N-terminal His-tag (Plasmodium falciparum 3D7)", "assay": "SEC; HiLoad 16/60 Superdex 200, calibrated; 50 mM potassium phosphate, 150 mM NaCl, 2 mM EDTA, pH 7.4; Ni-NTA eluate applied"}, "[3]": {"target": "Plasmodium falciparum apicoplast dihydrolipoamide dehydrogenase (PfaE3), recombinant mature-length, N-terminal His-tag (Plasmodium falciparum 3D7)", "assay": "AUC; sedimentation equilibrium, 17000 rpm, 4°C, 4.7 to 22.7 μM PfaE3; 50 mM potassium phosphate, 250 mM NaCl, 2 mM EDTA, pH 7.4; interference optics, single species model in SEDPHAT"}, "[4]": {"substrate": "NC(=O)C1=CN([C@@H]2O[C@H](COP(=O)(O)OP(=O)(O)OC[C@H]3O[C@@H](n4cnc5c(N)ncnc54)[C@H](O)[C@@H]3O)[C@@H](O)[C@H]2O)C=CC1", "assay": "purified protein", "type": "biochemical, Plasmodium falciparum", "conditions": "reverse reaction, 2 mM lipoamide, 50 mM potassium phosphate, 1 mM EDTA, pH 7, 25°C"}, "[5]": {"substrate": "NC(=O)CCCC[C@@H](S)CCS", "assay": "purified protein", "type": "biochemical, Plasmodium falciparum", "conditions": "forward reaction, 2 mM NAD+, 50 mM potassium phosphate, 1 mM EDTA, pH 8, 25°C"}, "[6]": {"substrate": "NC(=O)CCCC[C@@H]1CCSS1", "assay": "purified protein", "type": "biochemical, Plasmodium falciparum", "conditions": "reverse reaction, 200 μM NADH, 50 mM potassium phosphate, 1 mM EDTA, pH 7, 25°C"}, "[7]": {"substrate": "NC(=O)c1ccc[n+]([C@@H]2O[C@H](COP(=O)(O)OP(=O)(O)OC[C@H]3O[C@@H](n4cnc5c(N)ncnc54)[C@H](O)[C@@H]3O)[C@@H](O)[C@H]2O)c1", "assay": "purified protein", "type": "biochemical, Plasmodium falciparum", "conditions": "forward reaction, 2 mM DHLA, 50 mM potassium phosphate, 1 mM EDTA, pH 8, 25°C"}}}
{"molecule": "Plasmodium falciparum apicoplast dihydrolipoamide dehydrogenase (PfaE3), recombinant mature-length, N-terminal His-tag (enzyme)", "values": [{"measurement": "stoichiometry N", "setting": "[1]", "result": 2}, {"measurement": "stoichiometry N", "setting": "[2]", "result": 2}, {"measurement": "stoichiometry N", "setting": "[3]", "result": 2}]}
{"molecule": "PfaE3 (P. falciparum apicoplast E3, dihydrolipoamide dehydrogenase) (Plasmodium falciparum 3D7) (protein, mature-length, apicoplast-targeting peptide removed; given as 110-667 in Results but 118-667 in Methods (forward primer at nt 331, i.e. codon 111); N-terminal 6-His tag kept (pQE30), expressed in E. coli NovaBlue (DE3); about 64 kDa, homodimer 128 kDa; 566 residues with tag; some C-terminally truncated form present) LKGSTQNIMNINEKEYDLAIIGCGVGGHAAAINAMERNLKVIIFAGDENCIGGTCVNVGCIPSKALLYATNKYRELKNLDKLYYYGIHSNIFQNNKNTEIENNQLVSNSFQINITKLKEYTQSVIDKLRNGISHGFKTLKFNKNSEHVQVIYEHGQLLDKNTIKSKKSGNTYKVKNIIIATGSVPNIPNNVEIDDKSVFTSDMAVKLVGLKNYMSIIGMGIIGLEFADIYTALGSEITFLEYSSELLPIIDNDVAKYFERVFLKNKPVNYHLNTEVKYIKASKNNNPVIIGYSHRTGNDDNEKKNMTDVKELYVDSCLVATGRNPNTQNLGLEKLKIQMNRGYVSVNDNLQVKMENNEIYDNIFCIGDANGKQMLAHTASYQALKVIDFIEKKEKKNVNINVENNLSKPILYKNIPSVCYTNPELAFIGLTEKEAKVLYPDNVGVEISYYKSNSKILCENNISLNNNKKNNSYNKGQYNINDNTNGMVKIIYKEDTKEILGMFIVGNYASVLIHEAVLAINLKLSAFDLAYMVHSHPTVSEVLDTAFKSISKIRTH", "values": [{"measurement": "Km", "setting": "[4]", "result": "15 ± 2", "unit": "µM"}, {"measurement": "kcat", "setting": "[4]", "result": 77.8, "unit": "s⁻¹"}, {"measurement": "Km", "setting": "[5]", "result": "1160 ± 105", "unit": "µM"}, {"measurement": "kcat", "setting": "[5]", "result": 110, "unit": "s⁻¹"}, {"measurement": "Km", "setting": "[6]", "result": "841 ± 97", "unit": "µM"}, {"measurement": "kcat", "setting": "[6]", "result": 97, "unit": "s⁻¹"}, {"measurement": "Km", "setting": "[7]", "result": "96 ± 12", "unit": "µM"}, {"measurement": "kcat", "setting": "[7]", "result": 110, "unit": "s⁻¹"}]}
